B1: OR4K15 (parent)
chain: GUUAACGGUCAUAGGCCAUGGAAACUAGGAGCACCAUUUCGCUGCCAGUGAAGAAAUGAACAAAGAAAAUCUGGGCCAGGCAGGCAUCAAAAGAAAUAGUCUUGCGCUCAACCAGAAAGUCUGUAAUCAUUUUAAGGGUA

In this data set the parent is B1. Nature of the data set: self-cleavage, relative activity (ratio to wild type); higher = more cleavage; in vitro, sequencing; the parent is a self-cleaving ribozyme.
For the variant A51G A129U, the self-cleavage was determined as 0.76.
In the case of G48A A63G it was 0.93.
Regarding A51G A94G, the self-cleavage was determined as 1.2.
The figure for G48U A110G is 0.2; for A51G A116U it is 0.05; for A51G A116G it is 0.48.
In the case of A51G G136U it was 2.08; in that of A47U A126G, 0.77.
The figure for U49C A96G is 1; for U49C A96U it is 1.92.
As for A51G U130C, the self-cleavage was 0.54.
Consider A51C U108C, for which the self-cleavage was 0.01.
The figure for A47U U127C is 0.59.
In the case of A47U U127A it was 0.24; in that of U49G G83A, 0.47.
In the case of A47U U132G it was 0.61; in that of U49C A110G, 0.12; in that of U49A A69G, 1.49.
In the case of U49C A98G, the self-cleavage worked out at 0.48.
In the case of U49C A98C, the self-cleavage was determined as 1.84.
In the case of U49C A98U it was 2.55; in that of A51C A68G, 1.2; in that of A51G U124A, 1.04.
The figure for A47U A86G is 0.23; for G50U U132C it is 1.23; for A47U A59G it is 0.62.
As for U49A A91G, the self-cleavage stood at 1.
With G50A C113A, the self-cleavage was determined as 0.
On to U49C U97C, for which the self-cleavage turned out to be 1.29.
For A51C A60G, the self-cleavage was 2.31.
In the case of A51C A117G it was 0.81; in that of A47U A140G, 0.91.
In the case of A47G A126G it was 1; in that of A51G A91C, 1.97; in that of A51G A91G, 0.5.
Consider U49C A54U, for which the self-cleavage came out at 0.94.
In the case of U49C A54G it was 1.19; in that of G50U A125U, 2.34.
Consider A51G G79A, for which the self-cleavage worked out at 0.23.
In the case of A51G G79U it was 0.1.
In the case of U49G A51G, the self-cleavage is 0.95.
For A47U U130C, the self-cleavage amounted to 0.43.
On to U49A U72C, for which the self-cleavage stood at 0.16.
Take U49A U72A: the self-cleavage worked out at 0.36.
As to G48A A90G, the self-cleavage was determined as 0.76.
On to U49C G99U, for which the self-cleavage came out at 0.28.
The figure for U49A A118G is 1.31; for U49G G75A it is 0.09; for G48A A91U it is 1.71.
In the case of A51G A62U, the self-cleavage was determined as 1.49.
In the case of U49C G73A it was 0.28.
In the case of U49C G80U it was 0.11; in that of U49C G80A, 0.21.
The figure for A47U A78U is 0.25; for A47U G84A it is 1.13; for A47U G84U it is 0.25.
On to U49G U108A, for which the self-cleavage was determined as 0.04.
The figure for G50U C121A is 2.92; for U49C A68G it is 1.55.
Take U49A U120C: the self-cleavage stood at 0.84.
In the case of U49C A91U it was 1.68; in that of U49C A91G, 0.77; in that of G50A A66U, 0.67.
The figure for G48U A91G is 1.
The figure for A51G U122C is 0.6.
In the case of G50A C71U, the self-cleavage is 0.42.
In the case of A47U A63G it was 0.8; in that of A51G A126C, 0.91; in that of U49C G50U, 2.22.
In the case of A47U A69U, the self-cleavage turned out to be 1.22.
In the case of G48C U131C, the self-cleavage was found to be 0.69.
For the variant U49G A67C, the self-cleavage amounted to 1.97.
In the case of U49C A78U it was 0.37; in that of U49C A78C, 0.43.
As for U49C A78G, the self-cleavage came to 0.2.
In the case of A51G U120C it was 0.85; in that of U49C A66U, 1.39; in that of U49A G138U, 1.69.
Regarding U49G A62U, the self-cleavage was found to be 0.74.
Take A47U U120C: the self-cleavage worked out at 0.28.
The figure for G48U A118G is 1.08; for A47G U49C it is 0.98; for A47G U49A it is 1.06.
In the case of U49A G137A it was 1.92.
The figure for G50U G79A is 0.11; for U49A A94G it is 1.11.
With G50A A69G, the self-cleavage came to 1.85.
On to U49A C105U, for which the self-cleavage was determined as 0.15.
Consider G48A A98U, for which the self-cleavage worked out at 2.56.
On to A47U A114G, for which the self-cleavage came out at 0.21.
Regarding U49C U87C, the self-cleavage came out at 1.58.
The figure for U49C U122C is 0.52; for U49A A98U it is 0.26; for U49A A98G it is 0.44.
As for U49C A129U, the self-cleavage worked out at 0.92.
The figure for U49A U131G is 1.06; for G50U A63G it is 0.92; for G48A U127A it is 2.28.
In the case of U49A A54U it was 0.89; in that of U49A A54G, 1.3; in that of U49A A92G, 1.28.
In the case of G50C C85U it was 1.4; in that of U49C U131C, 1.11; in that of U49C U72C, 0.3.
Take G50U A62C: the self-cleavage is 2.27.
The figure for U49C U133A is 1.29; for U49C U133C it is 1.76; for A47G U108A it is 0.01.
In the case of A47U A62G it was 0.82.
U49C U70C: the self-cleavage stood at 0.59.
On to U49A A66U, for which the self-cleavage was 1.29.
Regarding U49A A66C, the self-cleavage amounted to 1.48.
The figure for A51C A91G is 1.33; for A51G C109U it is 0.4; for A51G A96G it is 1.47.
Turning to A47U A82C, the self-cleavage was found to be 0.21.
Take A47U A82U: the self-cleavage was determined as 0.17.
In the case of A47U U122A it was 0.87; in that of A47G U100C, 1.85.
The figure for U49C A116G is 0.82.
In the case of A47G A118U, the self-cleavage worked out at 0.67.
In the case of A51G A118U it was 0.39; in that of U49C A114U, 0.12.
Take A47U A91U: the self-cleavage is 0.51.
For A47U A91G, the self-cleavage stood at 0.88.
In the case of A47U A51G it was 0.86; in that of A47U G138A, 1.61.
For U49A U70A, the self-cleavage stood at 0.66.
For A51C A62G, the self-cleavage was found to be 0.72.
For the variant A51C A82G, the self-cleavage stood at 0.67.
Regarding A51G U70A, the self-cleavage stood at 1.23.
In the case of A51G A125U it was 1.72; in that of A51G A125G, 0.97; in that of G50C A56G, 1.42.
In the case of A47U A66G it was 0.99; in that of U49C A90C, 0.97; in that of U49G U131C, 1.56.
Regarding A47U U57C, the self-cleavage worked out at 0.75.
For the variant U49C A117U, the self-cleavage is 1.08.
The figure for U49C A117G is 1.68.
In the case of A47U G50A it was 0.26; in that of G50U A56G, 1.63.
The figure for U49C U132C is 1.45.
On to U49C U132G, for which the self-cleavage came to 0.91.
As to U49A U100C, the self-cleavage is 2.15.
The figure for G50U U100G is 1.34; for A51G U102C it is 2.58.
As to A51G A140U, the self-cleavage worked out at 1.35.
In the case of A51G A140G it was 1.62.
Take A47U C101U: the self-cleavage came out at 0.22.
The figure for G48U A96G is 1.28.
The figure for A51G A55G is 0.97.
In the case of A51G A55U it was 1.2; in that of U49C A89U, 2.12; in that of A51G U87A, 1.3.
For the variant A51G U87C, the self-cleavage worked out at 0.86.
In the case of U49G A59G it was 0.95.
Regarding U49G A59U, the self-cleavage stood at 1.34.
In the case of U49A A134G it was 0.74; in that of G48A A129G, 1.14.
In the case of A47U A60C it was 0.14; in that of A47U A60U, 0.75.
In the case of A51G C121U it was 2.74; in that of U49A U103C, 0.93.
With U49A U103G, the self-cleavage was found to be 0.01.
The figure for U49C G83U is 0.71; for A47U A110G it is 0.05.
